Test results from patent US12077763B2, “RNA-based control of powdery mildew” (Greenlight Biosciences, Inc., priority 2021, dated 2024).

B1: GS1830: dsRNA trigger SEQ ID NO 178; gene target Regulator of nonsense transcripts 1 homolog (nucleic acid)
DNA: CCGAGTTAAAGCTACATTTAAACGTCTTGGGTCACTTAAGAACCCAATTCCTTGATGGTCATTTGATCGAACACATGATAAAACAATGAAGTCTTTTTCACGCCCTTGAAAAGCATCGACTGAAGCAACTTCAATTTCCCTGTAGTTTTCTTTTTTAAAAGTACCAGTGTTTTGCATAGAGCTTACAACGTAACTTCGCTGACCTTCGTAAGGTGTAATAACTCCAATATCGGCAGGCTGAACACCTGCTTTGAAAAATCGGGTTACTATTTTTTCAACATTAGAAGCCTCTGTGCGATTAAGATATGATGTTCCTGAAGCAGAAATCTCTTCATTTCCGAGATTAGACCAAAACATCATCGGTGTATCTCCAACTGGCCAAGGAAAGTCAACTTCATCTCTAAGCCGCTCTTGCATCGTCACACCATTCTGGAGAGTTCCTTCATAGAACATATTTGACGGAAACTCTGATAGGCATGGATGCATACGATACTGGATATTGAGTCGAATAGGGTGCATTTCCAACATGACTAGACGTTCAAAAAGTGACTGATTTAAACCTGCTTTGGCAGCTTTTTTATTCATAATAAC
B2: GS1831: dsRNA trigger SEQ ID NO 115; gene target glycosyl_partial (nucleic acid)
DNA: CTGAATTGTTTTGAGACTGTTTATTACGAAACCCATTACTTTTGTCTTTGATATGGAATCTCCGATTGACAAACAATGTTTCGTCAGGTTTTGGTTCATAGCTAGTGGTCATTCCAATGGCACCTCTAATGTTATTAATAACAGTATTGAGTGATTGCTCAGGCATTAAACAAGCTGGGCGACATTCGGGTATATTTGAAACAGATTGTAAAATTTTGTCACGAAGGGTTGTTTCGTCTTGAAAATTTGGTCGCAAGCATAACTGGAGATTACGAAGTTGTTTTACTAATATTTCAAATACATCAAGCAATGGCTTTTCAGAATGTTGACTAGAAAGAAGTTGCAAGGTAATTTTGTTCCATTCATTCTGTGCATTTCTCTGTTTTTGTGGTCCTTCAAATTGGCCAAGCATTAATTGAGAGATTTCATCGATCTGTATTGCATTGCTACAGCGATGATGGTAGAAGTCTAATGCTTCTTTGTTAAACATTAAGAACATAGAAGACAGGATGTCTTTTTCATTTTCGATGCTCGCTAATTCGCATTTTTTCAAAAAGATGTTTAACTTGAAGTTATAGCTATCATCTTTT
B3: GS1833: dsRNA trigger SEQ ID NO 151; gene target Eukaryotic translation Initiation factor 3 subunit G (nucleic acid)
DNA: ACCTCACTAGGGCCTTCAGTAGTTTCATTAATACTAGTTAAAGCATCTCCGCTGTTTTCTTCACCAATTGGAGCCATTGTATCTTTAAAGGGACATCGGGCTGTAAAATGCTCTCCATTACATATACGACATTTAACTTTCTTATCTTTTAATTTGTCTTTCATTATTCCTGCCTCTGTTTTTTCATCTTTGGCATCTTTTTTCCAGTTGGCACTCGGTCTGAAAGTTATATTTTCACCAATAGATGTGGTTGAGCTATCTGGTCCGGGTTGATCTTTAGCAGAGAGTCCAAATTTACTCCACTGCTTTCTCTCGGCAACTCTAGGATTTACAATTTCTTTGTGTGTAGTGAAACGAATTCGTCTGGTATATTTGATCTTTTTTCCATCTTCATCGATTCGATAACTTACGATAGTTTGAGAGCCATCTTTATTAGTTGTTGTAGTTGTAGGAGGAAGTTGTTCTTCAATCCGGTCAACGGAAAGATCTTCATCGTCGGCCCAGTCAGCGCGAACAGATTGTTTAGACATTTTTCAAAATATTTTAATTAAATACTTGCAAATGGAAAGCTTGTAAATTCAAGCAAGTAT
B4: GS1834: dsRNA trigger SEQ ID NO 189; gene target Tubulin beta-2 chain (nucleic acid)
DNA: CTCGTCCATTCCTTCTCCAGTATACCAATGTAAGAAAGCTTTTCTTCTAAACATAGCTGTGAATTGATCCCCAACGCGCTTAAAGAGTTCTTGAATGGAAGTGGAGTTTCCTACAAATGTAGATGACATCTTAAGACCACGAGGTGGAATAGAGCAGAGTGCGGTTTGTACATTATTAGGGATCCACTCGACAAAATATGCAGAGTTCTTATTTTGTACATTGCGCATTTGGTCCTCTACTTCTTTCATTGATACCTTACCTCGAAATATTGCTGAACATGTTAAATAGCGCCCGTTTCGGAAATCAGACGCTGCCATCATATTTTTGGGGTCGTACATTTGCTGAGTCAACTCGGGAACAGTAACTGCGCGGAAAGAGTGGGCACCGCGACTTGTTAGAGGAGCAAATCCAACCATAAAAAAATGAAGACGAGGAAATGGAACCATGTTAACTGCTAACTTTCGAAGATCTGAGTTGAGTTGACCTGGGAAACGAAGACATGTTGTTACACCTGACATGACTGCAGATACCAAATGATTCAAATCACCATATGATGGGTTTGAAAGCTTTAAAGTTCTCATACATATTT
B5: GS1835: dsRNA trigger SEQ ID NO 159; gene target Probable glutamine--fructose-6-phosphate aminotransferase [isomerizing] (nucleic acid)
DNA: CCGATGACAAGGGGAGATCCTTTTCTTGCCGCAATTACTTCATGGGGATAATGGACTGATTTTAGTAGAAGTCCAAATGCTCCTTGCAGCTCCTTGATGACGGCCTTAGCTAAGTCCGTAAAAGTAATTGTTGGGTGCTGGTCATATATATACTTAGCAAGCTTGGCAATACACTCAGTATCAGTCTCTGTCTCAAATTTATGGCCCTTTGAGATAAGTAGGGTTTTGAGCTCTTTATAGTTTATTATGATTCCATTATGAACAACACTGAACTGCCATTTGGGGTCACTACGATGAGGATGGCAATTCAATCTTGATGGAGGGCCATGGGTGGCCCATCTAGTATGTGCAATACCAGCATGGGAGTCAAAAACTTTGGAGTTATCTAGTTGCGACTCCTGGACAAGTTGCTTTAATTTTGCAACCTTTCCAACTTCTTTGAACGCAAAAACTTCATCTTTTTCATCCCCGTCAATTGCGAGCCCGGCACTGTCGTAGCCACGGTATTCCAAGCGAGAGAGACCGTTGACAAGTGTTTCAAGAATGTGTTTGCGATCCTTTTCAATGAGATAATTAATATAGCCAAAGAT
B6: GS1836: dsRNA trigger SEQ ID NO 121; gene target Integral membrane protein/Pth11 homolog (nucleic acid)
DNA: GCTTTTCAATGTCGACCTGCAAACTACCTTTGGCAACAACTTGATTCAAAATTATATTCTGGAAGCTGTTTGAGCAAGGAGAGTATAGCCGATATTATATATGCTCATGCATCTATAAGTTGTTTAATTGACTGGATCTTTGGGATATTACCGATTTTAATTCTCTGGAAACTCGACATGAAGTTCAAGACCAAGCTCTCTATAATGATCGTTCTTTCATTAAGTATAGTAGCCTCTATAGCTACTGTTATACGTATTATTTACCTCCATATTCTTAAGAATGTGTCACAATCCGGTTGGGATGGTTTTGGATTAATAAAATGGTCTTTACTAGAACCAGCCATTGCCTTGACAGCTGCAAATATTGCAACTCTCAGGCCACTTACGCAAAAGTTATTTTCAAAAAAACGACGACCATCTAAATCACAACCACCTAAGCTTTCTCTCAATGCTATTCGGGGCTTAAGTCGGAAGTCTTCAGTATGTTGTTCAAGTGAATTTGCAGATATGTTAGGGCTAGCAGTATCACCTGGCGTGAAAACTCGAGTCTATGCTGATAGAAGACTTGATAACACTATCCAAAAAAGA
B7: GS1837: dsRNA trigger SEQ ID NO 199; gene target UDP-glucose: glycoprotein glucosyltransferase 1 (nucleic acid)
DNA: AAAATCTAGGCAAATCCTTGAAAAACTCAGAGCTTTTTTTTTCAATAAAATTCAAGTCAAAAAAATTCAGATCTTTTCGATTTTCAGGAATAATCAATTTATTTCTGCGATTTATCGCTTGATTTAAAAATATACTAGGCACCCAAAAATCTTGACTTCTCACATTTTCTGTCCCAAGGACAATAGTTTGCTGAATTAATTGTAGATCTGTATATATCTGTTGACTCATTTTCTGAAGCCAGAATTCATCTTTCGGTATAACAACGCCATTAATGATAACTGGGGGAACAAGGTCATCTGCACAAATCCTGTCTACCCATTTTTGGGACGATTGAATTCGACTCTCGAGCTCATCTGATTTCAAAACTTCGTCGAAAATTATTCGGGTTTTATTAGTCTTAATTTTTGCTTTCTGGGTGATTTGGTCGAATACATCCTTACTGTTTAAGCTAAGCTTTGATTCATTTTGTGACCGTAAATATGCTATTGCAGTTTGTAATCCATAAATTTCAATAAGGTGATAAATTACTTTTGCTTCGATTGCAGCATTTGAGTTTCTGATGACGGGAATGAGACCAATTCGGAT
B8: GS1839: dsRNA trigger SEQ ID NO 194; gene target Thioredoxin (nucleic acid)
chain: CTGACCGGGGCGCTATTACGATTAAATGAGCTGTTTTCCCCAGCGCTATAAGCATCCAGGGAGAATAAGGTTACAAAATATAATCCGAAAAAAGATAAAAAAGTATTTATCAATTGTTTCAAATCGAATGGCTTAGACAACTGTGTACTCGGACTCTTAGTACTCCCTAGAGTTCGTCCTTCTGAGGTATATGATAGACCTTCTAGGCCTGCAAGTCTGATGACAGACTCGATAGCAGTTCTTAAAGTAGACTGATCAGCGCCACGGATCGTATTGGCAATAGAGCCAGATCGAAAGATAATGAAGCTGGGAAGTGCTCTAACTCCATAACGCTGAGAAATATCCTGGTGATTGTCTACATTGACCTTGACAAAGGTGATCCTGTTCGGTTTCGAGTATTTGGAAGCAAGACTTTCGAAGGTGGGAGCAATAGCATTACATGGGCCGCACCAGTCGGCATAAACTAACCCAGCCATTAGTAGATTTAGTTAATCGGTGACGACTACTTTTGAAGAGTTCAAAATTTTGTCAAACTGAGATGAGGATCTGATACGGATAGACATGCTTTCTTTCTGTTCAA

System: E. necator
Test: Leaf disc assay, dry inoculum (settling tower), decrease in disease severity / hyphal growth (Example 2)
Conditions: decrease in disease severity (hyphal growth) relative to untreated control, value ± SE; for % decrease =/− SE TP1: time point 1 (untreated control hyphal growth ≥50%); for % decrease =/− SE TP2: time point 2

Molecule | % decrease =/− SE TP1 | % decrease =/− SE TP2
B1 | 36 ± 4% | 24 ± 5%
B2 | 34 ± 6% | 19 ± 6%
B3 | 12 ± 5% | 7 ± 5%
B4 | 8 ± 4% | 15 ± 6%
B5 | 25 ± 6% | 24 ± 6%
B6 | 23 ± 6% | 22 ± 6%
B7 | 15 ± 7% | 18 ± 8%
B8 | 20 ± 7% | 18 ± 7%
